Assay results from PMC8202958 (Cell reports, 2021).
Changes are numbered by the printed parent chain. Numbers in names are those of the source.

T1: MBP-Ecm25-N-term+RhoGAP (1–360aa) (S. cerevisiae, UniProt P32525 1-360)
T1 sequence (looked up): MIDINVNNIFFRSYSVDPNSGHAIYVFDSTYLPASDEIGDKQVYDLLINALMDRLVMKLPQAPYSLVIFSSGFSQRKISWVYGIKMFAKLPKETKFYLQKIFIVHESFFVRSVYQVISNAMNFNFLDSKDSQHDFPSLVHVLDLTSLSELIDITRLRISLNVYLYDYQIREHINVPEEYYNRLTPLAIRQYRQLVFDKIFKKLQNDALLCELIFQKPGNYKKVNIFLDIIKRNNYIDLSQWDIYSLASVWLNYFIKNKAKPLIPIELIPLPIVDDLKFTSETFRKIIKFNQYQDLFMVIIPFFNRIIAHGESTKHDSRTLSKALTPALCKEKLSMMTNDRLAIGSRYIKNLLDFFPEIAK

T2: MBP-Ecm25-FL (full length, 1–599aa) (S. cerevisiae, UniProt P32525 1-599)
T2 sequence (looked up): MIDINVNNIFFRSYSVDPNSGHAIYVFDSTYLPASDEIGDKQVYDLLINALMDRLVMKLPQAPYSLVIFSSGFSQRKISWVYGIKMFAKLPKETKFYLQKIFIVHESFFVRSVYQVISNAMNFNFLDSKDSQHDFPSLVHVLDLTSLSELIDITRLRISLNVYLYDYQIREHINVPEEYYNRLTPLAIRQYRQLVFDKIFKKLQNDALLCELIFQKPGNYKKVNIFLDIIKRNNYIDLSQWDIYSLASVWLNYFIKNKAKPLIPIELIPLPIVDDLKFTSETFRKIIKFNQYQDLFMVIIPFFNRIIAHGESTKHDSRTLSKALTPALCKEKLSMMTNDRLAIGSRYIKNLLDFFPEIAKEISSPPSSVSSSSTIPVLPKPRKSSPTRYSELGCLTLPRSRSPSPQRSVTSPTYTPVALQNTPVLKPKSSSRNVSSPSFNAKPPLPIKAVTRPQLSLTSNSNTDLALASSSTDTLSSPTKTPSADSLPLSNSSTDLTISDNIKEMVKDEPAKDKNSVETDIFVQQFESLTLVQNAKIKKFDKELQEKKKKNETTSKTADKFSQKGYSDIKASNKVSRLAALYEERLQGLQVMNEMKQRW

B1: GST-Cdc42(T17N) (natural protein)
chain: not shown
B2: GST-Cdc42(Q61L) (natural protein)
chain: not shown
B3: GST-Cdc42 (natural protein)
chain: not shown
B4: GST-Sla1(1–420aa, W41S) (domain or fragment, S. cerevisiae, UniProt P32790 1-420, looked up)
chain: MTVFLGIYRAVYAYEPQTPEELAIQEDDLLYLLQKSDIDDSWTVKKRVIGSDSEEPVGLVPSTYIEEAPVLKKVRAIYDYEQVQNADEELTFHENDVFDVFDDKDADWLLVKSTVSNEFGFIPGNYVEPENGSTSKQEQAPAAAEAPAATPAAAPASAAVLPTNFLPPPQHNDRARMMQSKEDQAPDEDEEGPPPAMPARPTATTETTDATAAAVRSRTRLSYSDNDNDDEEDDYYYNSNSNNVGNHEYNTEYHSWNVTEIEGRKKKKAKLSIGNNKINFIPQKGTPHEWSIDKLVSYDNEKKHMFLEFVDPYRSLELHTGNTTTCEEIMNIIGEYKGASRDPGLREVEMASKSKKRGIVQYDFMAESQDELTIKSGDKVYILDDKKSKDWWMCQLVDSGKSGLVPAQFIEPVRDKKHTE
B5: GST-Sla1(1–420aa, W108S) (domain or fragment, S. cerevisiae, UniProt P32790 1-420, looked up)
chain: B4 chain with S41W, W108S
B6: GST-Ysc84 (natural protein, S. cerevisiae, UniProt P32793 1-468, looked up)
chain: MGINNPIPRSLKSETKKAAKVLRSFVKPNQVFGADQVIPPYVLKRAKGLAIITVLKAGFLFSGRAGSGVIVARLKDGTWSAPSAIAMAGAGAGGMVGVELTDFVFILNSEEAVRSFSEFGTITLGGNVSVSAGPLGRSAEAAASASTGGVSAVFAYSKSKGLFAGVSVEGSAILERREANRKFYGDNCTSKMILSGRVKVPPAADPLLRILESRAFNFTRHDHDDNASGDDFYDDGQYSDNTSHYYDDIPDSFDSTDESSTRPNTRSSRRRGMSLGSRSRYDDDYDDDGYGRGRGYGDFDSEDEDYDYGRSPNRNSSRNRGPQIDRGTKPRANTRWEDDLYDRDTEYSRPNHSGRDYDNTRGNRRGYGRERGYSLGHGPTHPSNMSNVDDLSHKMSKTGLGNESTATNSATPTAVALYNFAGEQPGDLAFKKGDVITILKKSDSQNDWWTGRTNGKEGIFPANYVRVS
B7: GST-Lsb3 (natural protein, S. cerevisiae, UniProt P43603 1-459, looked up)
chain: MGINNPIPRSLKSETKKAAKILASFVKPNQVFGADQVIPPDVLKRAKGLAIITILKAGFLFSGRAGSGVIVARLKDGTWSAPSAIAMAGAGAGGMVGIELTDFVFILNTQDAVKSFSEFGTITLGGNVSVSAGPLGRSAEAAASASAGGVAAVFAYSKSKGLFAGVSVEGSAIIERREANRKFYGDNCTAKMILSGRIRPPPAVDPLFRVLESRAFNYRPSNGGRGSFDDDEDDYYDDDDYYNDIPSSFSSTDASSTRPNTRSTRRRAQSGSRYTFDDDDDDDDYGTGYSRNSRLAPTNSGGSGGKLDDPSGASSYYASHRRSGTAQSRARSSRNRWADDEYDDYDDDYESGYRRGNGRDRTKDREVDDLSNRFSKSRISSASTPQTSQGRFTAPTSPSTSSPKAVALYSFAGEESGDLPFRKGDVITILKKSDSQNDWWTGRVNGREGIFPANYVELV

Target: T1, MBP-Ecm25-N-term+RhoGAP (1–360aa)
Experiment: pull-down

Binding result, binds:
B1, B2, B3

Target: T2, MBP-Ecm25-FL (full length, 1–599aa)
Experiment: pull-down

Binding result, binds:
B4, B5, B6, B7
